Numbering of substitutions follows the chain as printed.
B1: VEGFBII88A01 (VHH)
VHH: KVQLVESGGGLVQAGGSLRLSCAASERTFSNYAMDWFRQAPGKEREFVAAITRSGGGTYYADSVKGRFTISRDNAKNTVYLQMNSLKPEDTAVYYCAATRSSTIVVGVGGMEYWGKGTLVTVSS
B2: VEGFBII88G03 (VHH)
VHH: EVQLVESGGGLVQAGGSLRLSCAASGGTFSSLAVGWFRQAPGKEREFVARITWSGATTYYADAVKDRFTISRDNAKNTMYLQMNSLKPEDTAVYYCAADRSPNIINVVTAYEYDYWGQGTQVTVSS
B3: VEGFBII88G11 (VHH)
VHH: EVQLVESGGGLAQAGGSLRLSCAASGRTFSGSDMGWFRQSPGKEREIVAAIRLSGSITYYPDSVKGRFTISRDNAKNTVYLQMNSLKPEDTAVYYCAARSTYSYYLALADRGGYDYWGQGTQVTVSS
B4: VEGFBII89B04 (VHH)
VHH: EVQLVESGGGLVQAGGSLRLSCAASTSISSTNFMGWYRQAPGKQRELVATITSSSITNYVDSVKGRFTISRDNAKNTVYLQMTSLKPEDTAVYYCHARWRWSDVEYWGKGTLVTVSS
B5: VEGFBII88H01 (VHH)
VHH: EVQLVESGGGLVQAGGSLRLSCVASGFTLGTYAIGWFRQAPGKEREAVSCMSAGDSIPWYTASVKGRFTTSTDNARNTVYLQMNSLKPEDTAHYYCAAARYHGDYCYYEGYYPFWGQGTQVTVSS
B6: VEGFBII23A03 (VHH)
VHH: EVQLVESGGGLVQPGDSLKLSCVASGRTFSSYSMGWFRQAQGKEREFVVAISSGGYIYDSVSLQGRFTISRDNTKNTVYLQTPSLKPEDTAVYYCAASRAYGSSRLRLADTYDYWGQGTQVTVSS
notes: periplasmic extract
B7: VEGFBII23E05 (VHH)
VHH: B6 VHH with G8E, F29S
notes: periplasmic extract
B8: VEGFBII22A11 (VHH)
VHH: B6 VHH with V23A, A24F, G35A, Y56F, S60A, Q64E
notes: periplasmic extract
B9: VEGFBII27D08 (VHH)
VHH: B6 VHH with P14T, K19R, V23A, I57K, Q64E, K75Q, T82I, P83N, S104G
notes: periplasmic extract
B10: VEGFBII41B05 (VHH)
VHH: B6 VHH with D16G, K19R, V23A, A24F, Y56F, S60A, Q64E
notes: periplasmic extract
B11: VEGFBII23D11 (VHH)
VHH: B6 VHH with K19R, V23A, A24F, G35A, Y56F, S60A, Q64E
notes: periplasmic extract
B12: VEGFBII30C09 (VHH)
VHH: B6 VHH with V23I, F29S, K43Q
notes: periplasmic extract; also called VEGFBII30009
B13: VEGFBII23A08 (VHH)
VHH: B6 VHH with P14T, K19R, S53N, I57K, Q64E, T82I, P83N
notes: periplasmic extract
B14: VEGFBII42F11 (VHH)
VHH: B6 VHH with F29S, M34V
notes: periplasmic extract
B15: VEGFBII22E04 (VHH)
VHH: B6 VHH with F29S, Y56S, G102A
notes: periplasmic extract
B16: VEGFBII27G07 (VHH)
VHH: B6 VHH with F29S, K43Q
notes: periplasmic extract
B17: VEGFBII40F02 (VHH)
VHH: B6 VHH with V23A, A24F, G35A, Y56F, S60A, Q64E, D89G
notes: periplasmic extract
B18: VEGFBII41G03 (VHH)
VHH: B6 VHH with V23A, A24F, G35A, Y56F, S60A, Q64E, D72E
notes: periplasmic extract
B19: VEGFBII01E07 (VHH)
VHH: EVQLVESGGGLVQAGDSLRLSCVATGRTFRASDMGWFRQAPGKEREFVAAINWSGLSTFYTDSVKGRFTISRDNDNGALYLQMNTLKPEDTAVYSCAAGRIPSSSRFSSPAAYASWGQGTQVTVSS
B20: VEGFBII88G05 (VHH)
VHH: EVQLVESGGGLVQPGASLRLSCAASGDGFTLYNMGWFRQAPGKEREFVAAITSSPMSTYYADSVKGRFSISINNDKTTGFLQMNVLKPEDTGVYFCAAPEGSFRRQYADRAMYDYWGQGTQVTVSS
B21: VEGFBII88E02 (VHH)
VHH: EVQLVESGGGLVQPGGSLRLSCVASGFRLDDYAIGWFRQAPGKEREAVSCISSSDTSIDYTNSVKGRFTFSRDNAKNTVYLQMNSLKPEDTAVYYCAAAFRCSGYELRGFPTWGQGTQVTVSS
B22: VEGFBII88B02 (VHH)
VHH: EVQLVESGGGLVQPGGSLRLSCTASGLNLDDYAIGWFRQAPGKEREGVSCISSYDSVTYYADHVKGRFTISRDSAKNTLYLQMNSLSIEDTGVYYCAAEREQLRRRESPHDELLRLCFYGMRYSGKGTLVTVSS
B23: VEGFBII89D04 (VHH)
VHH: EVQLVESGGGLVQPGGSLRLSCATSGLTFSDYNLGWFRQAPGKERQFVAVISWRDSFAYYAEPVKGRFTISRDNAKNTVYLQMNSLKPEDTAVYYCAADRVSSRLVLPNTSPDFGSWGQGTQVTVSS
B24: VEGFBII01C02 (VHH)
VHH: EVQLVESGGGLVQAGGSLRLSCTASGGSFSSYGMGWFRQSPGKEREFVSAISEYSNTYCSDSVRGRFTISRDNTKNTVYLQMNSLTPDDTAIYYCAASPTILLTTEQWYKYWGQGTQVTVSS
B25: VEGFBII86G11 (VHH)
VHH: EVQLVESGGGLVQAGGSLRLSCAASGLTFSLYTVGWFRQAPGKEREFVAYISRSGSNRYYVDSVKGRFTLSRDNAKNTVDLQMNSLKTEDTAVYYCAATSRGLSSLAGEYNYWGRGTQVTVSS
B26: VEGFBII89F09 (VHH)
VHH: EVQLVESGGGLVQAGDSLRLSCAASGRTFNNAIMGWFRQAPGQEREFVAAMNWRGGPTYYADSVKGRFTISGDNTKNTVFLQMNFLKPEDTAVYYCAADEDLYHYSSYHYSRVDLYHYWGQGTQVTVSS
B27: VEGFBII87B07 (VHH)
VHH: EVQLVESGGGLVQPGGSLKLSCTASGFTFSTSWMHWVRQAPGKGLEWVSSIPPVGHFANYAPSVKGRFTISRDNAKNTLFLQMNSLKSEDTAVYYCAKDSAGRTKGQGTQVTVSS
B28: VEGFBII89H08 (VHH)
VHH: EVQLVESGGGLVQAGGSLRLSCAASGGSFSSYAPGWFRQAPGKEREFVAAFTRSSNIPYYKDSVKGRFTISRDNAHTVYLQMNSLKPEDTAIYYCAVNLGSTWSRDQRTYDYWGQGTQVTVSS
B29: VEGFBII89B08 (VHH)
VHH: EVQLVESGGGLVQPGGSLRLSCAASGTTSSIFAMRWYRQAPGKQRELVASITRSSITTYADSVKGRFTPSRDNAKNTVSLQMNSLKPEDTAVYYCNAAIRPELYSVVNDYWGQGTQVTVSS
B30: VEGFBII89G09 (VHH)
VHH: B29 VHH with P69L
B31: VEGFBII88A02 (VHH)
VHH: EVQLVESGGGLVQAGGSLRLSCAASGFTFGDYDIGWFRQAPGNEREGVSCITTDVGTTYYADSVKGRFTISSDNAKNTVYLQINDLKPEDTAIYYCAVDTQDLGLDIFCRGNGPFDGWGQGTQVTVSS

How the values were obtained:
[1] = molecular target: T1, recombinant human VEGF165 (human, UniProt P15692-4 27-191); assay: ELISA screen, periplasmic extract on coated hVEGF165
T1 construct: also called hVEGF165; rhVEGF165
T1 sequence (P15692 other isoform, or with tags, fused parts or gaps limits assumed): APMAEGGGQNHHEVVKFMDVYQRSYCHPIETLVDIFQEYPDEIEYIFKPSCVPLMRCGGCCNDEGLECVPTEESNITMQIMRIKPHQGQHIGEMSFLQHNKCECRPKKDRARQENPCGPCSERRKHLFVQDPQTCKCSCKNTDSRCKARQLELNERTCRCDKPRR
Description: Wells are blocked with a casein solution (1%). After addition of typically a 10-fold dilution of the periplasmic extracts, VHH binding is detected using a mouse anti-myc (Roche) and an anti-mouse-HRP conjugate (DAKO). Clones showing ELISA signals of >3-fold above background are considered as VEGF binding VHHs.

[2] = molecular target: T1, recombinant human VEGF165; assay: Biacore, periplasmic extract on hVEGF165 chip
Protocol: (§1) Dissociation rates of inhibitory VHHs are analyzed on Biacore (Biacore T100 instrument, GE Healthcare). HBS-EP+ buffer is used as running buffer and experiments are performed at 25° C. […] After immobilization, surfaces are deactivated with 10 min injection of 1M ethanolamine pH8.5. A reference surface is activated and deactivated with respectively EDC/NHS and ethanolamine. Periplasmic extracts of VHHs are injected at a 10-fold dilution in running buffer for 2 min at 45 μl/min and allowed to dissociate for 10 or 15 min. Between different samples, the surfaces are regenerated with regeneration buffer. Data are double referenced by subtraction of the curves on the reference channel and of a blank running buffer injection. […] is evaluated by fitting a two phase decay model in the Biacore T100 Evaluation software v2.0.1.

[3] = molecular target: T1, recombinant human VEGF165; assay: Biacore, periplasmic extract on hVEGF165 chip, two phase decay fit
Protocol: as §1

Binder | binding result [1] | Binding level (RU) [2] | % fast [3]
B1 | binds | – | –
B2 | binds | – | –
B3 | binds | – | –
B4 | binds | – | –
B5 | binds | – | –
B6 | – | 487 RU | 15%
B7 | – | 275 RU | 18%
B8 | – | 461 RU | 12%
B9 | – | 225 RU | 13%
B10 | – | 324 RU | 16%
B11 | – | 510 RU | 13%
B12 | – | 264 RU | 19%
B13 | – | 502 RU | 19%
B14 | – | 100 RU | 46%
B15 | – | 520 RU | 14%
B16 | – | 471 RU | 18%

Binder | binding result [1] | Binding level (RU) [2] | % fast [3]
B17 | – | 258 RU | 20%
B18 | – | 332 RU | 20%
B19 | binds | – | –
B20 | binds | – | –
B21 | binds | – | –
B22 | binds | – | –
B23 | binds | – | –
B24 | binds | – | –
B25 | binds | – | –
B26 | binds | – | –
B27 | binds | – | –
B28 | binds | – | –
B29 | binds | – | –
B30 | binds | – | –
B31 | binds | – | –

Reference: patent US20170247475A1 (Boehringer Ingelheim, published 2017)
